B1: Nibrin (Homo sapiens), O60934 (parent)
chain: MWKLLPAAGPAGGEPYRLLTGVEYVVGRKNCAILIENDQSISRNHAVLTANFSVTNLSQTDEIPVLTLKDNSKYGTFVNEEKMQNGFSRTLKSGDGITFGVFGSKFRIEYEPLVACSSCLDVSGKTALNQAILQLGGFTVNNWTEECTHLVMVSVKVTIKTICALICGRPIVKPEYFTEFLKAVESKKQPPQIESFYPPLDEPSIGSKNVDLSGRQERKQIFKGKTFIFLNAKQHKKLSSAVVFGGGEARLITEENEEEHNFFLAPGTCVVDTGITNSQTLIPDCQKKWIQSIMDMLQRQGLRPIPEAEIGLAVIFMTTKNYCDPQGHPSTGLKTTTPGPSLSQGVSVDEKLMPSAPVNTTTYVADTESEQADTWDLSERPKEIKVSKMEQKFRMLSQDAPTVKESCKTSSNNNSMVSNTLAKMRIPNYQLSPTKLPSINKSKDRASQQQQTNSIRNYFQPSTKKRERDEENQEMSSCKSARIETSCSLLEQTQPATPSLWKNKEQHLSENEPVDTNSDNNLFTDTDLKSIVKNSASKSHAAEKLRSNKKREMDDVAIEDEVLEQLFKDTKPELEIDVKVQKQEEDVNVRKRPRMDIETNDTFSDEAVPESSKISQENEIGKKRELKEDSLWSAKEISNNDKLQDDSEMLPKKLLLTEFRSLVIKNSTSRNPSGINDDYGQLKNFKKFKKVTYPGAGKLPHIIGGSDLIAHHARKNTELEEWLRQEMEVQNQHAKEESLADDLFRYNPYLKRRR
B2: DNA repair and telomere maintenance protein nbs1 (Schizosaccharomyces pombe (strain ATCC 38366 / 972)), O43070 (parent)
chain: MWIIEAEGDILKGKSRILFPGTYIVGRNVSDDSSHIQVISKSISKRHARFTILTPSEKDYFTGGPCEFEVKDLDTKFGTKVNEKVVGQNGDSYKEKDLKIQLGKCPFTINAYWRSMCIQFDNPEMLSQWASNLNLLGIPTGLRDSDATTHFVMNRQAGSSITVGTMYAFLKKTVIIDDSYLQYLSTVKESVIEDASLMPDALECFKNIIKNNDQFPSSPEDCINSLEGFSCAMLNTSSESHHLLELLGLRISTFMSLGDIDKELISKTDFVVLNNAVYDSEKISFPEGIFCLTIEQLWKIIIERNSRELISKEIERLKYATASNSTPQKIIQPQRHIQKNIVDDLFSVKKPLPCSPKSKRVKTLENLSIMDFVQPKQMFGKEPEGYLSNQSNNGSAQNKKSGDNSEKTKNSLKSSSKKSANTGSGQGKTKVEYVSYNSVDKGNSSPFKPLELNVVGEKKANAEVDSLPSENVQESEDDKAFEENRRLRNLGSVEYIRIMSSEKSNANSRHTSKYYSGRKNFKKFQKKASQKAPLQAFLSLSEHKKTEVFDQDDTDLEPVPRLMSKVESIPAGASSDKSGKSSISKKSSNSFKELSPKTNNDEDDEFNDLKFHF
B3: DNA endonuclease ctp1 (Schizosaccharomyces pombe (strain ATCC 38366 / 972)), O74986 (parent)
chain: MNEEEHNKSVHWSIVYRQLGNLLEQYEVEIARLKSQLVLEKKLRIQVEKELESVKTKQISSSASSKVSSNTIQELDSTTDEDEIPGSDTVDEEDPSLNAPFSEKNQSVKIPPHSPTLPVQNASAFVKPISVPLGNVKEEKFLDTNPIGAESFESSDGEMHLRARSPEDMILLRETQPLAPLDINTLGVSDNRQKKGTEKKRPFEPEFLNDDVIRGNKRKALPAYECPDCQKFYELHGPVKESSVAPTWNDENRLGGGSLPNCKHQPLVQKVGRHRKLNIPKPIPNGFWESDFVD
partner: B2 chain

Variants of: B1
Details: with mdc1_human MDC1, Q14676
Target sequence in this assay (Q14676 whole entry): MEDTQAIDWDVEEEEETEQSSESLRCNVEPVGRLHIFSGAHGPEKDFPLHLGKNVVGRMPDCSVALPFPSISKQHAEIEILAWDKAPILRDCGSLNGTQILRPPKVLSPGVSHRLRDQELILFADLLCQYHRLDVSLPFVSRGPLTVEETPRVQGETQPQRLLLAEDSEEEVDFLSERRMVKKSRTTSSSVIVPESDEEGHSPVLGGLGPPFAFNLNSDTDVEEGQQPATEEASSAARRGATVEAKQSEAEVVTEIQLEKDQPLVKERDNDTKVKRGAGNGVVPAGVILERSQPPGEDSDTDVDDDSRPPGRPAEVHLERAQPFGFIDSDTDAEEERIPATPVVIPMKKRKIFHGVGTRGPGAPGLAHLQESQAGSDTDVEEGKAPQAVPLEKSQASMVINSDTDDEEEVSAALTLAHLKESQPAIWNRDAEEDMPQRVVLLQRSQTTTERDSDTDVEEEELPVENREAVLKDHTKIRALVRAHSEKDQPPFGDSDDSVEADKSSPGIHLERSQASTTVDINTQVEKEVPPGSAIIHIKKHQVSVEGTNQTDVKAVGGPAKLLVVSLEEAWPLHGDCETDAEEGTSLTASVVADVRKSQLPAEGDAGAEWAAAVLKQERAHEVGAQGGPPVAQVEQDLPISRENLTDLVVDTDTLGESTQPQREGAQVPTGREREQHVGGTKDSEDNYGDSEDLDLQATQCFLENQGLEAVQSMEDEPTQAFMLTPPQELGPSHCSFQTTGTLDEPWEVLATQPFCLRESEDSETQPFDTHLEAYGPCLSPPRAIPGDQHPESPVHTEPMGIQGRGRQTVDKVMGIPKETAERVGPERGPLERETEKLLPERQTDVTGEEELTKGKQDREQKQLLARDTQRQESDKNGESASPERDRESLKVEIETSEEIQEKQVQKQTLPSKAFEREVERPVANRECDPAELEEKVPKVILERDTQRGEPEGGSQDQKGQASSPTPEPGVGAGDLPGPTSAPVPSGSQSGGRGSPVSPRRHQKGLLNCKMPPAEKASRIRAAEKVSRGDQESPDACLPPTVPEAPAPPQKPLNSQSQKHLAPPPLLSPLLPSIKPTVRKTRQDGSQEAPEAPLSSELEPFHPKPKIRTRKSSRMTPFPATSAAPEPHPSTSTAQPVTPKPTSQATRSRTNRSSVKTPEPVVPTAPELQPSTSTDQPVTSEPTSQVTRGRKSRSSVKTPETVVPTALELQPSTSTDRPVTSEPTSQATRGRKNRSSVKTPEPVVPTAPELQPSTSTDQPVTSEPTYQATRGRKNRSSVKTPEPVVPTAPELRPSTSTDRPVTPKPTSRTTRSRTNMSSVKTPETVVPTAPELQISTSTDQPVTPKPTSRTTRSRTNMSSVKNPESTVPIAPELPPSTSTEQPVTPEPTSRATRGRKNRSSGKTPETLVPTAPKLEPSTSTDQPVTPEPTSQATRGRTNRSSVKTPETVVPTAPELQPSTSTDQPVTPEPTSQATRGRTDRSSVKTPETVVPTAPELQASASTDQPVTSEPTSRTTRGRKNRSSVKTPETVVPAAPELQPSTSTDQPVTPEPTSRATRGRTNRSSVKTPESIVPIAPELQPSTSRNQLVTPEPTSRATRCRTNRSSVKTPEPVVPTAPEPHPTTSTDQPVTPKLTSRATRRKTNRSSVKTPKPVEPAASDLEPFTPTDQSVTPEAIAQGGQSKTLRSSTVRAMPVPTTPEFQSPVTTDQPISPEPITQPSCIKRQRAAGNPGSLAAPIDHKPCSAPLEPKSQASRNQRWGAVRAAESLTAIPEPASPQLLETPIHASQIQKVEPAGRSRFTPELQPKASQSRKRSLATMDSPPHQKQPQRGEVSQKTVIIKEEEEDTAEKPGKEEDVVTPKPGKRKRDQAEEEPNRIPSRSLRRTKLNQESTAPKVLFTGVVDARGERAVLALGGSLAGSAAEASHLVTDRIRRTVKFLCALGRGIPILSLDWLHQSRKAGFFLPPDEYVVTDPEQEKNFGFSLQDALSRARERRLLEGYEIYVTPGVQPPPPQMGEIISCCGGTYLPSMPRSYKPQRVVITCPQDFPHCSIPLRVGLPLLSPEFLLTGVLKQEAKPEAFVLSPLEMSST

effect of a mutation on the interaction | Variant
decreasing interaction | R28A
decreasing interaction | S42A
decreasing interaction | K160M
disrupting interaction | S42A;K160M

Variants of: B2
Details: with mdc1_human MDC1, Q14676
Target sequence in this assay (Q14676 whole entry): as above

effect of a mutation on the interaction | Variant
decreasing interaction | K45A
decreasing interaction | K76A
decreasing interaction | G103D

Variants of: B3
Details: with nbs1_schpo nbs1, O43070

effect of a mutation on the interaction | Variant
increasing interaction | MNEEEHNKSVHWSIVYRQLGNLLEQYEVEIARLKSQLVLEKKLRIQVEKELESVKTKQISSSASSKVSSNTIQELASTTDEDEIPGSDTVDEEDPSLNAPFSEKNQSVKIPPHSPTLPVQNASAFVKPISVPLGNVKEEKFLDTNPIGAESFESSDGEMHLRARSPEDMILLRETQPLAPLDINTLGVSDNRQKKGTEKKRPFEPEFLNDDVIRGNKRKALPAYECPDCQKFYELHGPVKESSVAPTWNDENRLGGGSLPNCKHQPLVQKVGRHRKLNIPKPIPNGFWESDFVD [D76A]
